# Reference: article PMC3839629
# Experiments:
# [1] = molecular target: DGK_(Cysless), cysless His6-tagged diacylglycerol kinase from Escherichia coli (Escherichia coli); assay: anion exchange chromatography of subunit exchange
# [2] = molecular target: E5-DGK_(Cysless), cysless His6-tagged diacylglycerol kinase with a pentaglutamate tag (Escherichia coli); assay: anion exchange chromatography of subunit exchange
substance,measurement,setting,value
"DGK_(Cysless), cysless His6-tagged diacylglycerol kinase from Escherichia coli (enzyme)",half-life of subunit exchange,[1],> 5 weeks
"E5-DGK_(Cysless), cysless His6-tagged diacylglycerol kinase with a pentaglutamate tag (enzyme)",percent of the expected final subunit exchange after 7 days,[1],10%
same,ratio of the mixed peaks to the pure peaks after 7 days,[1],0.3
same,half-life of subunit exchange,[2],> 5 weeks
